Data: IntAct's records for PubMed 17641689

B1: Retinoic acid receptor RXR-alpha (Mus musculus), P28700 (parent)
chain: MDTKHFLPLDFSTQVNSSSLNSPTGRGSMAVPSLHPSLGPGIGSPLGSPGQLHSPISTLSSPINGMGPPFSVISSPMGPHSMSVPTTPTLGFGTGSPQLNSPMNPVSSTEDIKPPLGLNGVLKVPAHPSGNMASFTKHICAICGDRSSGKHYGVYSCEGCKGFFKRTVRKDLTYTCRDNKDCLIDKRQRNRCQYCRYQKCLAMGMKREAVQEERQRGKDRNENEVESTSSANEDMPVEKILEAELAVEPKTETYVEANMGLNPSSPNDPVTNICQAADKQLFTLVEWAKRIPHFSELPLDDQVILLRAGWNELLIASFSHRSIAVKDGILLATGLHVHRNSAHSAGVGAIFDRVLTELVSKMRDMQMDKTELGCLRAIVLFNPDSKGLSNPAEVEALREKVYASLEAYCKHKYPEQPGRFAKLLLRLPALRSIGLKCLEHLFFFKLIGDTPIDTFLMEMLEAPHQAT
partner: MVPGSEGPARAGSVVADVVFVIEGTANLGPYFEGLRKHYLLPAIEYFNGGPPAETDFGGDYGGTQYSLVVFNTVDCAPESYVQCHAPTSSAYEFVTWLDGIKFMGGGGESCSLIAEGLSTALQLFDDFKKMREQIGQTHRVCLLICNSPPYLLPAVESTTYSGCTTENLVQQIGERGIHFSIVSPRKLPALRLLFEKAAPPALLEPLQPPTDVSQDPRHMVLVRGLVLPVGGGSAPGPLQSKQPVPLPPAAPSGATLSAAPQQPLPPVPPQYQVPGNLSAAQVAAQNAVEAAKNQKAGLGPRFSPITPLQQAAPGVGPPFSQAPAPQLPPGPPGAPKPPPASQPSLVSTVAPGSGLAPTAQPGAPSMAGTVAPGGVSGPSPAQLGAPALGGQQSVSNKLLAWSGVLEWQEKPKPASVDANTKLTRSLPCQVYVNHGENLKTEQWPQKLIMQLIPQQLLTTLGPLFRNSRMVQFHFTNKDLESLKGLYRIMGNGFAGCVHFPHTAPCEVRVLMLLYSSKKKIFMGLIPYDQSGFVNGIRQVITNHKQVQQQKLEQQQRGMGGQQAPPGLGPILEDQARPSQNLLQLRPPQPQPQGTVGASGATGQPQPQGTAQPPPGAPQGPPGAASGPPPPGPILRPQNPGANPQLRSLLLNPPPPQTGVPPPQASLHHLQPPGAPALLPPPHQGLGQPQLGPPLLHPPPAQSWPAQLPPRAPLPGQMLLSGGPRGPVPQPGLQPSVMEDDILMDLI
B2: Retinoic acid receptor alpha (Homo sapiens), P10276 (parent)
chain: MASNSSSCPTPGGGHLNGYPVPPYAFFFPPMLGGLSPPGALTTLQHQLPVSGYSTPSPATIETQSSSSEEIVPSPPSPPPLPRIYKPCFVCQDKSSGYHYGVSACEGCKGFFRRSIQKNMVYTCHRDKNCIINKVTRNRCQYCRLQKCFEVGMSKESVRNDRNKKKKEVPKPECSESYTLTPEVGELIEKVRKAHQETFPALCQLGKYTTNNSSEQRVSLDIDLWDKFSELSTKCIIKTVEFAKQLPGFTTLTIADQITLLKAACLDILILRICTRYTPEQDTMTFSDGLTLNRTQMHNAGFGPLTDLVFAFANQLLPLEMDDAETGLLSAICLICGDRQDLEQPDRVDMLQEPLLEALKVYVRKRRPSRPHMFPKMLMKITDLRSISAKGAERVITLKMEIPGSMPPLIQEMLENSEGLDTLSGQPGGGGRDGGGLAPPPGSCSPSLSPSSNRSSPATHSP
partner: B1 partner

Variants of: B1
Conditions: with med25_human MED25, Q71SY5

Variant | effect of a mutation on the interaction
E461Q | decreasing interaction

Variants of: B1
Conditions: with med25_human MED25, Q71SY5
Remark: another data set of the same source

Variant | effect of a mutation on the interaction
M459A | disrupting interaction
L460A | disrupting interaction

Variants of: B1
Conditions: with med25_human MED25, Q71SY5
Remark: another data set of the same source

Variant | effect of a mutation on the interaction
F455A | disrupting interaction

Variants of: B2
Conditions: with med25_human MED25, Q71SY5

Variant | effect of a mutation on the interaction
L414A | disrupting interaction
M413A | disrupting interaction

Variants of: B2
Conditions: with med25_human MED25, Q71SY5
Remark: another data set of the same source

Variant | effect of a mutation on the interaction
I410A | disrupting interaction
L409A | disrupting interaction

Variants of: B2
Conditions: with med25_human MED25, Q71SY5
Remark: another data set of the same source

Variant | effect of a mutation on the interaction
E412Q | disrupting interaction
E415Q | disrupting interaction
